The target in test [1] is PD-1 (of the Promega PD-1/PD-L1 blockade bioassay) (UniProt Q15116 25-288, limits assumed). Briefly: cell-based or functional assay.
Test [2] deals with T1, human PD-1 on cells (human, UniProt Q15116 25-288).
T1 construct: also called CHO-hPD1 cell
Put plainly: flow cytometry on CHOS cells overexpressing human PD1, median fluorescence intensity PE-A. A general note: Flow cytometry measures light scatter and fluorescence of single cells or particles in a stream.

Test [3] deals with T2, cynomolgus PD-1 on cells (cynomolgus, UniProt Q15116 25-288 (human entry)).
T2 construct: also called CHO-cynoPD1 cell
T2 chain: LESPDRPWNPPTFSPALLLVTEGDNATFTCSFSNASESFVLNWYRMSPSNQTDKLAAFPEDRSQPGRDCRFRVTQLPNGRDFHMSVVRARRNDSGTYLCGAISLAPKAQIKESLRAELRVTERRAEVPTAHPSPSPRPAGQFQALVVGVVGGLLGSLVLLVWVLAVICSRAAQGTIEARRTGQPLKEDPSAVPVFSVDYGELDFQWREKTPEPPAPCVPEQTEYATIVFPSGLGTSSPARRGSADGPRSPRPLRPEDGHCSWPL
Put plainly: flow cytometry on CHOS cells overexpressing cynomolgus PD1, median fluorescence intensity PE-A.

Test [4] has as its target T3, human CD39 on cells (human, UniProt P49961 1-510).
T3 sequence: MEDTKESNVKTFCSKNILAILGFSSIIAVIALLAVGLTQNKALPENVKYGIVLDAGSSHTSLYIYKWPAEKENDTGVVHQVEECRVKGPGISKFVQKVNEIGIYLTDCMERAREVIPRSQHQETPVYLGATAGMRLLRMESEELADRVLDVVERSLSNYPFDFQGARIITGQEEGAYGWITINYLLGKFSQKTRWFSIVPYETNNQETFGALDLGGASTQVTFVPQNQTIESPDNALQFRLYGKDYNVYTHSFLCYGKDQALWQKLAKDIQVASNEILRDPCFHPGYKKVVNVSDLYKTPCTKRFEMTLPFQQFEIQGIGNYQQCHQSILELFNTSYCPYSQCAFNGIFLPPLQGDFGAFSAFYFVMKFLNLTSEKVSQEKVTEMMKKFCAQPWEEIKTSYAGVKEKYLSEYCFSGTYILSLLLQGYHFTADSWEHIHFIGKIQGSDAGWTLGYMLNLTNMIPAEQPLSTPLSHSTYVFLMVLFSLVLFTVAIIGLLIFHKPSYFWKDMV
Briefly: cell-based or functional assay.

The target in test [5] is T3, human CD39 on cells. Briefly: cell-based or functional assay. The source holds these as a separate data set.
Test [6] concerns the target T4, human CD39 (recombinant protein in solution) (human, UniProt P49961 38-478, limits assumed).
T4 sequence: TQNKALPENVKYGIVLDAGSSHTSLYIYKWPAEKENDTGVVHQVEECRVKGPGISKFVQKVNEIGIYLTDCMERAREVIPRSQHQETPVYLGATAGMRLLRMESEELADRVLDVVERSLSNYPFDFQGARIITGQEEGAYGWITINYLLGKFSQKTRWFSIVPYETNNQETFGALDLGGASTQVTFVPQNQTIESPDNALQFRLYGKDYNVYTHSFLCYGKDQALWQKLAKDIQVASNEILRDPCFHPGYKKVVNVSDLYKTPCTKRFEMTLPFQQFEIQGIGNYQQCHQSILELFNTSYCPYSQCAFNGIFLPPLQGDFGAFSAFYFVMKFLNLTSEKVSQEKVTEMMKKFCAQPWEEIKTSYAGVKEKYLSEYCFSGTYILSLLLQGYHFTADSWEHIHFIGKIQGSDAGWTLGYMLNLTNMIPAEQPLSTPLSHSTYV
Briefly: cell-based or functional assay.

Test [7] addresses T3, human CD39 on cells. Briefly: cell-based or functional assay. This is another data set of the same source.
Test [8] concerns the target T3, human CD39 on cells. Briefly: cell-based or functional assay. This is another data set of the same source.
Test [9] concerns the target T4, human CD39 (recombinant protein in …). Put plainly: cell-based or functional assay. This is another data set of the same source.
The target in test [10] is T3, human CD39 on cells. Briefly: flow cytometry on CHO-hCD39 cells, MFI titration.
The target of test [11] is T5, cynomolgus CD39 on cells (cynomolgus, UniProt P49961 6-510 (human entry)).
T5 construct: also called cyCD39; CHO-cyCD39 cells
T5 chain: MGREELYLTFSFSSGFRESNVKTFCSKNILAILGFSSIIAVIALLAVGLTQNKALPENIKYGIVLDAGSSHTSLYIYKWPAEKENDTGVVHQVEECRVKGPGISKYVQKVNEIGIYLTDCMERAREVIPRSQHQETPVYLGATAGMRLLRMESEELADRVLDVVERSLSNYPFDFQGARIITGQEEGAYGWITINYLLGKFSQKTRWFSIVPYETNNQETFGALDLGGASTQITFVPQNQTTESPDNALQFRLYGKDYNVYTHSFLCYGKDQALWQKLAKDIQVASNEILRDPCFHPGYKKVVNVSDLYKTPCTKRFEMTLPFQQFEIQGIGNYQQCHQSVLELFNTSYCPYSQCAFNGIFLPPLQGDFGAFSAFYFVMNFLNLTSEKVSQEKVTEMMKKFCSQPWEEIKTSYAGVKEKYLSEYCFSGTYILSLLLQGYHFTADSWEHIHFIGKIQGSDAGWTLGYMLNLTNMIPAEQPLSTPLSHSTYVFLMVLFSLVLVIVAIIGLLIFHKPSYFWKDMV
Put plainly: flow cytometry on CHO-cyCD39 cells, MFI titration.

Test [12] deals with T4, human CD39 (recombinant protein in …). Briefly: BLI (ForteBio), method of Example 3, human CD39 in solution. The protocol: (§1) ForteBio affinity test was conducted according to the existing methods (Estep, P et al., High throughput solution based measurement of antibody-antigen affinity and affinity binding. MAbs, 2013.5 (2): p. 270-8). In short, the sensor is balanced offline in the analysis buffer for 30 min, and then tested online for 60 s to establish baseline. After that, the AHQ sensor is online loaded with the above-obtained purified antibody, and put into 100 nM human CD39 (SEQ ID NO: 28) for 5 min, and then transferred the sensor to PBS for dissociation for 5 min. A 1:1 binding model is used for the dynamic analysis.
The humanized sequences are subjected to the humanized antibody vector construction, expression and purification according to the method described in Example 2. […] The purified humanized antibodies were subjected to the affinity test at protein level according to the method described in Example 3.
On the technique in general: Biolayer interferometry detects binding as a change in optical thickness at a sensor tip.

For test [13] the target is unchanged. Put plainly: BLI (ForteBio), antibody loaded on AHQ sensor, 100 nM human CD39 in solution, 1:1 model. As to the method: as §1
For test [14] the target is unchanged. Briefly: BLI (ForteBio), method of Example 3, human CD39 in solution. The protocol: as §1
The source holds these as a separate data set.

Read-outs that look alike come from different tables or passages of the source.

In general, EC50 (read off the curve) refers to the concentration that produces a half-maximal response. The low end stands for higher potency in that assay, the high end for lower potency in that assay. One may read the EC50 as the concentration giving half of the maximal effect. A high value points to a less potent agent. As a reminder, the Kd is the concentration at which binding is half-saturated. Broadly, the koff is a measure of how fast the partners let go of each other. The kon is the rate constant with which the complex forms.

Sequence of PD-1 (of the Promega PD-1/PD-L1 blockade bioassay) (Q15116 25-288 limits assumed): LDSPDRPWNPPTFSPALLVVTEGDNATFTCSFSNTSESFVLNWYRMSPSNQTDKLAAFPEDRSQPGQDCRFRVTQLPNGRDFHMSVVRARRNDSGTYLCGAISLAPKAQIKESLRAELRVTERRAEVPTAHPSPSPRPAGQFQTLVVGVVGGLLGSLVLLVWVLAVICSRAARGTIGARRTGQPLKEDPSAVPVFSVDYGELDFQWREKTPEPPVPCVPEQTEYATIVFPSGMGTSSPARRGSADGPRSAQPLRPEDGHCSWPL
T1 sequence (Q15116 25-288 limits assumed): as above

B1: anti-PD1 antibody ADI-54872 (antibody, V domains shown)
VH: EVQLVQSGAEVKKPGASVKVSCKASGYTFTEYYIYWVRQAPGQGLEWIGGINPSNGGTNFNEKFKPRVTMTVDTSTSTAYMELSSLRSEDTAVYYCTVRDFRFDKGFKYWGQGTLVTVSS
VL: DIVLTQSPATLSLSPGERATLSCRASKSVSTSGLNYVHWYQRKPGQAPRLLIYLGSYLDSGVPARFSGSGSGTDFTLTISSLEPEDFAVYYCQQSWELPLTFGGGTKVEIK
notes: also called anti-PD-1 monoclonal antibody molecule
In the case of B1, the “EC50 (read off the curve)” value was around 0.2 nM in test [1], around 10 nM in test [2] and around 10 nM in test [3].

B2: I394 BMK (antibody, human IgG1, kappa, V domains shown)
VH: EVQLQQSGPELVKPGASVKMSCKASGYTFTDYNMHWVKQSHGRTLEWIGYIVPLNGGSTFNQKFKGRATLTVNTSSRTAYMELRSLTSEDSAAYYCARGGTRFAYWGQGTLVTVSA
VL: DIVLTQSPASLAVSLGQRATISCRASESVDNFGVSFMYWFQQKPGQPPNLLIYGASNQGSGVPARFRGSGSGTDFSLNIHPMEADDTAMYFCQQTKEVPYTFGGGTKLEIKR
notes: also called control antibody
For the molecule B2, the “EC50 of blocking CD39 enzyme activity in human CD39 overexpression cells (ATP, CellTiter-Glo)” value in test [4] stood at 10.1 nM. Also, the “EC50 of blocking CD39 enzyme activity in PBMC system” value in test [5] came to 10.1 nM; in test [8] it was 0.338 nM. In [6], the “EC50 of blocking enzyme activity of soluble CD39” value turned out to be 3.09 nM. The “EC50 of blocking CD39 enzyme activity of human CD39 overexpression cells” value in test [7] was 1.99 nM. In addition, the “EC50 of blocking enzyme activity of soluble human CD39” value in test [9] stood at 8.89 nM. The EC50 in test [10] was found to be 4.76 nM; in test [11], 5.53 nM. The dissociation constant (Kd) in test [12] is 1.5 nM; in [13], 0.855 nM. The koff in [12] is 0.000371 s⁻¹; in test [13], 0.0002 s⁻¹. Besides, the on-rate constant (kon) in test [12] was 245000 M⁻¹ s⁻¹; in [13], 285000 M⁻¹ s⁻¹.

B3: anti-PD1×CD39 antibody (bispecific antibody, human IgG1, kappa)
heavy: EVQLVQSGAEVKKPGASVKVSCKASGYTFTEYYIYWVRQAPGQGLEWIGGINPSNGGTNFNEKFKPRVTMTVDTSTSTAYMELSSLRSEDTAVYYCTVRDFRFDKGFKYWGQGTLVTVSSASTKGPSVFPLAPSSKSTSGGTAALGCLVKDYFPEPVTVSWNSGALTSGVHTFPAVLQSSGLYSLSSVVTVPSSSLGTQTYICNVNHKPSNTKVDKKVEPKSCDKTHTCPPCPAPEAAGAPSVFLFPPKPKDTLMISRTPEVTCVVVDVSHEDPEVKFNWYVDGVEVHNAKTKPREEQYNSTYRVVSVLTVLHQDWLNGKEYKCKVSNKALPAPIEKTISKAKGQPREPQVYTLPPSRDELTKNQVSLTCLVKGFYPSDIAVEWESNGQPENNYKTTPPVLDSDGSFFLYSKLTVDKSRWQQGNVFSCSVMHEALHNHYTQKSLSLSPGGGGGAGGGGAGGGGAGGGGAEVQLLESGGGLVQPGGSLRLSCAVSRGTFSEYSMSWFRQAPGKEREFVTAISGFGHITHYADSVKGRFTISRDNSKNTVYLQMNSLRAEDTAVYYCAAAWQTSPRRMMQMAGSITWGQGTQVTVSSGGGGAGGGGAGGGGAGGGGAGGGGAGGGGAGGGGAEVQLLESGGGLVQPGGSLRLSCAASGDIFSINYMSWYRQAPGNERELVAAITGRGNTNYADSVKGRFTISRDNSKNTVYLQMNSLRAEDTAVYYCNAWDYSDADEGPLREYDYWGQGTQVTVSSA
light: DIVLTQSPATLSLSPGERATLSCRASKSVSTSGLNYVHWYQRKPGQAPRLLIYLGSYLDSGVPARFSGSGSGTDFTLTISSLEPEDFAVYYCQQSWELPLTFGGGTKVEIKRTVAAPSVFIFPPSDEQLKSGTASVVCLLNNFYPREAKVQWKVDNALQSGNSQESVTEQDSKDSTYSLSSTLTLSKADYEKHKVYACEVTHQGLSSPVTKSFNRGEC
notes: also called Anti-PD1xCD39 antibody
In the case of B3, the results for the “EC50 (read off the curve)” value in test [1], in test [2] and in [3] were around 0.3 nM, around 10 nM and around 20 nM, respectively.

B4: Bi307/308 (bispecific antibody, human IgG1, kappa, L234A L235A)
heavy: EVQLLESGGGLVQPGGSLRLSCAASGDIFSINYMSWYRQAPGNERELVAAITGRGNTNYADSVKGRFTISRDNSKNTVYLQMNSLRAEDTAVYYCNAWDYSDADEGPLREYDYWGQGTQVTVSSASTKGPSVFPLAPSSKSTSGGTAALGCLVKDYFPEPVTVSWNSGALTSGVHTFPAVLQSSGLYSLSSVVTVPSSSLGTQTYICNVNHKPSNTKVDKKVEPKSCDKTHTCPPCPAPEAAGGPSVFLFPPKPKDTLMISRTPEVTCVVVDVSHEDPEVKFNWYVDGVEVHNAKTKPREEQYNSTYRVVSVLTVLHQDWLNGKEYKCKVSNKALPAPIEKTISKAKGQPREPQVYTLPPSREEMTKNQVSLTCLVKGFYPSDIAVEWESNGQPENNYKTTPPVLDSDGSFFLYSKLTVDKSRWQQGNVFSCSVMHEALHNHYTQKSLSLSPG
light: EVQLLESGGGLVQPGGSLRLSCAVSRGTFSEYSMSWFRQAPGKEREFVTAISGFGHITHYADSVKGRFTISRDNSKNTVYLQMNSLRAEDTAVYYCAAAWQTSPRRMMQMAGSITWGQGTQVTVSSRTVAAPSVFIFPPSDEQLKSGTASVVCLLNNFYPREAKVQWKVDNALQSGNSQESVTEQDSKDSTYSLSSTLTLSKADYEKHKVYACEVTHQGLSSPVTKSFNRGEC
notes: also called bi-epitopic anti-CD39 antibody resembling IgG structure
For the molecule B4, in test [14], the Kd was 0.351 nM, the koff came to 0.000106 s⁻¹ and the association rate constant (kon) came out at 303000 M⁻¹ s⁻¹.

The values above are taken from US20250230255A1 (BIOTHEUS, published 2025).
